According to patent US20240108693A1, “METHOD OF TREATING LOWER URINARY TRACT SYMPTOMS” (Versameb AG, priority 2021, published 2024):
“Also recorded” adds a separate entry of the source.

What was measured:
[1] = test system: vaginal distension (VD) animal model of stress urinary incontinence (SUI); assay: Leak point pressure (LPP) in rat vaginal distension model for stress urinary incontinence; format: in vivo; settings: for area under curve (AUC) of urinary bladder leak point pressure: Day 0-14 after VD; for time course of leak point pressure (LPP): Day 4, 9 and 14 after VD; for leak point pressure (LPP) of urinary bladder: Cpd.1B single urethral injection Day 0, Duloxetine 20 mg/kg oral daily
Text: The urethra is a conduit for elimination of urine from the bladder. It is composed of an epithelium lining the lumen, lamina propria with a prominent vascular plexus, smooth muscle and an outer layer of striated muscle (called external urethral sphincter). The urethra functions in coordination with the bladder: it remains closed during bladder filling to maintain continence and it relaxes during voiding to allow flow of urine. These processes are controlled by parasympathetic, sympathetic and somatic innervation. Parasympathetic nerves release nitric oxide to relax the urethra during bladder voiding, while sympathetic nerves release noradrenaline to contract the urethra during bladder filling. The striated muscle receives somatic innervation that contracts the muscle ensuring continence during bladder filling. Using the model of stress urinary incontinence (SUI) in female rats the hypothesis was tested if Cpd.1B can be effective against SUI in the vaginal distension (VD) model by facilitating muscle growth and regeneration. […] Vaginal Distension (VD) was applied for 4 hours to female Sprague-Dawley Female rats under isoflurane anesthesia. 1 hour after the end of VD, the abdomen was surgically opened to access the urethra and rats received two injections of vehicle or Cpd.1B (10 μg each) through a Hamilton syringe at approximately 5 and 7 o'clock positions. Sham treated animals (catheter without inflation) were treated with vehicle as controls. […] Rats were then put in a supine position on a heated pad at 37° C. The bladder was emptied manually and filled with room temperature saline through the bladder catheter at 3.0 ml/h. After bladder filling with 0.4-0.5 ml, the abdomen was slowly depressed manually to increase abdominal pressure until fluid leakage was observed from the urethral orifice.

[2] = test system: vaginal distension (VD) animal model of stress urinary incontinence (SUI); assay: Histological assessment of urethral integrity after vaginal distension (Masson trichrome scores); format: in vivo, rat; settings: mid-urethra cross-sections, Day 9 and 14 after VD
Description: Vaginal Distension (VD) was applied for 4 hours to female Sprague-Dawley Female rats under isoflurane anesthesia. 1 hour after the end of VD, the abdomen was surgically opened to access the urethra and rats received two injections of vehicle or Cpd.1B (10 μg each) through a Hamilton syringe at approximately 5 and 7 o'clock positions. Sham treated animals (catheter without inflation) were treated with vehicle as controls. […] From 2 animals of each group, the urethra-vaginal tissues were harvested (cross-section of the mid-urethra and anterior vagina) on Day 9 and 14, and the tissues immersed in neutral buffered formalin containing 4% formaldehyde for a period of 4 h, then embedded in paraffin. Sections of 5 μm were stained with the standard procedures of Hemalun-Eosin (HE), Masson Trichrome (MT) and Picrosirius red. Based on morphology and tissue integrity, histology scores were allocated to the outer circular muscle layer (OCML), the inner longitudinal muscle layer (ILML) and the endomysial tissue of mid-urethral sections, and Day 9 and 14 sampled. The following histological scores were applied to the different layers and averaged per group: • Outer Circular Muscle Layer (OCML, skeletal muscle): • 0=circumferential regular • 1=circumferential focally thinned • 2=discontinued • 3=mostly absent • Inner Longitudinal Muscle Layer (ILML, smooth muscle): • 0=mid-sized to large fascicles • 1=small fascicles) • Endomysial tissue: • 0=thin, dense • 1=thickening by loose connective tissue • 2=focal replacement of muscles by connective tissue • 3=replacement of muscles by connective tissue

IGF1 protein = IGF1 protein expression in rat TA muscle after i.m. injection of Cpd.1A (human-specific IGF1 ELISA); format: in vivo; settings: 3 and 10 μg doses i.m., after a delay of several hours
Description: (§1) For assessment of Cpd.1A exposure in rat tibialis anterior (TA) muscle, two injections of each 15 μl Cpd.1A at different doses (1, 3 or 10 μg per injection) into TA muscles of male or female rats were performed in adult rats. After 6, 24, 48 and 72 hours, TA muscles were harvested, divided into two parts to analyse RNA and protein content, and Cpd.1A RNA content was analysed by qPCR and IGF1 protein levels by human-specific IGF1 ELISA (Cat. #E20, Mediagnost, Reutlingen, Germany). Total RNA was extracted from flash frozen TA muscle tissues (ca. 10 mg) using Norgen's Animal Tissue RNA Purification Kit (Cat. #25700). A TaqMan assay was developed and validated to quantify Cpd.1A and Cpd.1B RNA from muscle tissues through absolute quantification. Both forward primer (5′ […] 3′; SEQ ID NO: 14) and reverse primer (5′ […] 3′; SEQ ID NO: 15) along with labelled probe with quencher (5′ FAM-CTGCTGCCGTAGCCTG-MGB-Q500 3′; SEQ ID NO: 16) were designed to be specifically bind to Cpd.1A and Cpd.1B RNA and ordered (www.microsynth.com). […] The Cpd.1A RNA copy numbers in TA muscles were assessed by calculating unknown values from standard curves. From qPCR data, half-life was calculated using a monoexponential decay function. […] After 24 and 72 hours, tissues were harvested, and Cpd.1B content was analysed by qPCR as specified above where standard curve template generated from Cpd.1B mRNA.

[3] = rat, in vivo
Description: as §1

CNCC[C@H](Oc1cccc2ccccc12)c1cccs1 [Duloxetine, reference compound]
area under curve (AUC) of urinary bladder leak point pressure [1]: clear increase in AUC; also recorded: beneficial efficacy | time course of leak point pressure (LPP) [1]: initial increase in LPP that declined thereafter to normal levels on Day 14 | leak point pressure (LPP) of urinary bladder ([1]; Day 4 after VD, vs. VD vehicle): initial increase of LPP; also recorded: significant increase of LPP; also recorded: increased LPP | leak point pressure (LPP) of urinary bladder ([1]; Day 14 after VD): control levels | endomysial tissue histology score [2]: further worsened this pathology | inner longitudinal muscle layer (ILML) histology score [2]: further increased the ILML score | outer circular muscle layer (OCML) histology score [2]: further deteriorated the OCML pathology | endomysial tissue histology score ([2]; listed as duloxetine): worsens the endomysium score | inner longitudinal muscle layer (ILML) histology score ([2]; listed as duloxetine): worsens the ILML score | outer circular muscle layer (OCML) histology score ([2]; listed as duloxetine): tends to worsen the OCML disorganization

B1: Cpd.1A: mRNA encoding human BDNF signal peptide, IGF1 pro-domain and mature human IGF1 (SEQ ID NO: 8), from pMA-T vector, N1-methylpseudouridine modified (nucleic acid)
DNA: AUGACCAUCCUGUUUCUGACAAUGGUCAUCAGCUACUUCGGCUGCAUGAAGGCCGUGAAGAUGCACACCAUGAGCAGCAGCCACCUGUUCUAUCUGGCCCUGUGCCUGCUGACCUUUACCAGCUCUGCUACCGCCGGACCUGAGACACUUUGUGGCGCUGAACUGGUGGACGCCCUGCAGUUUGUGUGUGGCGACAGAGGCUUCUACUUCAACAAGCCCACAGGCUACGGCAGCAGCUCUAGAAGGGCUCCUCAGACCGGAAUCGUGGACGAGUGCUGCUUCAGAAGCUGCGACCUGCGGCGGCUGGAAAUGUAUUGUGCCCCUCUGAAGCCUGCCAAGAGCGCCUAA
modifications: mRNA, N1-methylpseudouridine modified; misc_feature 1..348 RNA sequence of Cpd.1A and Cpd.1B; misc_feature 1..348 m1f (uridine is 1-methylpseudouridine)
duration of IGF1 protein production at relevant concentrations in TA muscle (IGF1 protein): up to 72 hours | duration of relevant Cpd.1A exposure in TA muscle [3]: up to 72 hours | half-life of Cpd.1A in TA muscle ([3]; im, 3 ug): 21 h

B2: Cpd.1B: mRNA encoding human BDNF signal peptide, pro-IGF1 and mature IGF1 without E-peptide, 120 bp poly-A tail, from pMK vector (nucleic acid)
chain: AUGACCAUCCUGUUUCUGACAAUGGUCAUCAGCUACUUCGGCUGCAUGAAGGCCGUGAAGAUGCACACCAUGAGCAGCAGCCACCUGUUCUAUCUGGCCCUGUGCCUGCUGACCUUUACCAGCUCUGCUACCGCCGGACCUGAGACACUUUGUGGCGCUGAACUGGUGGACGCCCUGCAGUUUGUGUGUGGCGACAGAGGCUUCUACUUCAACAAGCCCACAGGCUACGGCAGCAGCUCUAGAAGGGCUCCUCAGACCGGAAUCGUGGACGAGUGCUGCUUCAGAAGCUGCGACCUGCGGCGGCUGGAAAUGUAUUGUGCCCCUCUGAAGCCUGCCAAGAGCGCCUAA
modifications: 1-methylpseudouridine; poly-A tail; misc_feature 1..348 RNA sequence of Cpd.1A and Cpd.1B; misc_feature 1..348 m1f (uridine is 1-methylpseudouridine)
notes: mRNA encoding human BDNF signal peptide, pro-IGF1 and mature IGF1 without E-peptide, 120 bp poly-A tail, from pMK vector
area under curve (AUC) of urinary bladder leak point pressure [1]: clear increase in AUC; also recorded: beneficial efficacy | time course of leak point pressure (LPP) [1]: increase of LPP over time that returned to normal levels by Day 14 | leak point pressure (LPP) of urinary bladder ([1]; Day 4 after VD, vs. VD vehicle): significant increase in LPP; also recorded: significant increase of LPP; also recorded: increased LPP | leak point pressure (LPP) of urinary bladder ([1]; Day 9 after VD): further increased; also recorded: did not reach significance; also recorded: still showed increased LPP | leak point pressure (LPP) of urinary bladder ([1]; Day 14 after VD): full recovery to healthy LPP levels | endomysial tissue histology score [2]: completely prevented this impairment; also recorded: reverted | inner longitudinal muscle layer (ILML) histology score [2]: preventing this disruption; also recorded: reverted | outer circular muscle layer (OCML) histology score [2]: prevented this trend; also recorded: reverted
